T1: PACAP38 (Pituitary Adenylate Cyclase-Activating Polypeptide, 38 amino acids) (human, not fully specified; the C-terminal lysine is amidated)
T1 construct: In the HTRF and PC-12 cell assays the peptide was N-terminally or C-terminally biotinylated; unlabelled in SPR; also called human PACAP38; huPACAP (1-38)
T1 peptide: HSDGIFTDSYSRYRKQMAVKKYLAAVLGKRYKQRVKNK

T2: PACAP27 (Pituitary Adenylate Cyclase-Activating Polypeptide, 27 amino acids) (human, the C-terminal leucine is amidated)
T2 construct: also called human PACAP27
T2 peptide: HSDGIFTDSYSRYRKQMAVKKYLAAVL

T3: VIP (Vasoactive Intestinal Peptide) (human)
T3 construct: also called human VIP
T3 peptide: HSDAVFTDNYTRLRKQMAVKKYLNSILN

T4: PAC1-R on PAC1-R-expressing PC-12 cells (UniProt P32215 20-523)
T4 construct: whole, on cells; also called PAC1 receptor
T4 sequence (looked up): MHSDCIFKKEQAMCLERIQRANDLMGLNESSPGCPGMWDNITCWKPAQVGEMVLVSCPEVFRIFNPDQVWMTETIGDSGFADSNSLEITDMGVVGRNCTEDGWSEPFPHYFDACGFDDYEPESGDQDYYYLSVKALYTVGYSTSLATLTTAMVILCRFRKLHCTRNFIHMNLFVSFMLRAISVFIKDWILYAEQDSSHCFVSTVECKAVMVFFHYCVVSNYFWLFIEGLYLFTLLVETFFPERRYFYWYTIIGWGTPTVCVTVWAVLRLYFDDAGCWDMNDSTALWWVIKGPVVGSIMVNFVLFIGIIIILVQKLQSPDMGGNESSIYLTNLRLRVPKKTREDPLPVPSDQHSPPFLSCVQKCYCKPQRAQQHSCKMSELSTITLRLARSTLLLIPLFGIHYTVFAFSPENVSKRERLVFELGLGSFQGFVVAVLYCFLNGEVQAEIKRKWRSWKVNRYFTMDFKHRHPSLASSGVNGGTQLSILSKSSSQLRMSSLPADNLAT


What was measured:
[1] = target: T1, PACAP38 (Pituitary Adenylate …); test: SPR (ProteOn XPR36), antibody amine-coupled, peptide analyte, 1:1 Langmuir fit
Description: (§1) Binding affinities of monoclonal antibodies for human PACAP were estimated using SPR on the PROTEON™ XPR36 (Bio-Rad, Hercules, CA). Antibody was immobilized to the surface of general amine coupling (“GLC″ or “GLM”) Chips (Bio-Rad, Hercules, CA). […] Antigen (ranging from 1.23 nM to 100 nM) was typically run sequentially with association times of 2-4 minutes and dissociation times of 3-120 minutes grouped with the PROTEON™ Manager Software (v3.1.0.6 (Bio-Rad, Hercules, CA)) and fitted using a 1:1 Langmuir binding model. Surfaces were regenerated between analyte queries using 0.85% Phosphoric Acid, 0.5% SDS, and 0.1N NaOH.

[2] = target: T2, PACAP27 (Pituitary Adenylate …); test: as above
Description: as §1

[3] = target: T1, PACAP38 (Pituitary Adenylate …); test: cell-based or functional assay
[4] = target: T2, PACAP27 (Pituitary Adenylate …); test: cell-based or functional assay
[5] = target: T1, PACAP38 (Pituitary Adenylate …); test: cell-based or functional assay
[6] = target: T3, VIP (Vasoactive Intestinal Peptide); test: SPR (ProteOn XPR36), antibody amine-coupled, peptide analyte, 1:1 Langmuir fit
[7] = target: T1, PACAP38 (Pituitary Adenylate …); test: cell surface binding assay (DELFIA TRF): antibody pre-incubated with PACAP38, added to PAC1-R-expressing PC-12 cells, detected with Eu anti-human IgG; the antibody is held on the cells through cell-bound PACAP38
Description: Cells were initially seeded at 1×10⁵ cells/well in a solution of complete RPMI (“cRPMI”: RPMI medium supplemented with 10% sterile heat-inactivated FBS and 1% sterile antibiotic/antimycotic)+10% FBS, and the plates were allowed to incubate overnight at 37° C. On the day of the binding assay, antibodies at an initial concentration of 15 μg/ml were diluted at a 1:3 ratio in DELFIA® binding buffer (50 mM Tris, 150 mM NaCl, 0.1% azide, 2% horse serum) (Perkin-Elmer, Waltham, MA) to a total volume of 60 μL in a separate 96 well round bottom plate. PACAP38 was prepared for the binding assay by diluting it in DELFIA® binding buffer to a concentration of 200 nM, and then 60 μl of the diluted PACAP38 was added to each of the antibody-containing wells to form antibody: antigen complexes. Following addition of PACAP38, the antibody: antigen complexes were incubated at room temperature on a shaker for 1 hour. […]
DELFIA® Europium labeled anti-human IgG detection reagent (Cat #1244-330, Perkin-Elmer, Waltham, MA) was diluted to a concentration of 300 ng/ml in DELFIA® Binding Buffer. […] The plates were then read (TRF, excitation 330 nm, emission 620 nm) on a SPECTRAMAX® (Molecular Devices, Sunnyvale, CA) plate reader.

[8] = target: T1, PACAP38 (Pituitary Adenylate …); test: cell-based or functional assay
[9] = target: T4, PAC1-R on PAC1-R-expressing PC-12 cells; test: cell surface binding assay (DELFIA TRF): antibody pre-incubated with PACAP38, added to PAC1-R-expressing PC-12 cells, detected with Eu anti-human IgG
Description: Cells were initially seeded at 1×10⁵ cells/well in a solution of complete RPMI (“cRPMI”: RPMI medium supplemented with 10% sterile heat-inactivated FBS and 1% sterile antibiotic/antimycotic)+10% FBS, and the plates were allowed to incubate overnight at 37° C. On the day of the binding assay, antibodies at an initial concentration of 15 μg/ml were diluted at a 1:3 ratio in DELFIA® binding buffer (50 mM Tris, 150 mM NaCl, 0.1% azide, 2% horse serum) (Perkin-Elmer, Waltham, MA) to a total volume of 60 μL in a separate 96 well round bottom plate. PACAP38 was prepared for the binding assay by diluting it in DELFIA® binding buffer to a concentration of 200 nM, and then 60 μl of the diluted PACAP38 was added to each of the antibody-containing wells to form antibody: antigen complexes. Following addition of PACAP38, the antibody: antigen complexes were incubated at room temperature on a shaker for 1 hour. Separately, the PC-12 cells were prepared for addition of antibody: antigen complexes by washing the cells two times with DELFIA® wash buffer (50 mM Tris, 150 mM NaCl, 0.1% Azide) (Perkin-Elmer, Waltham, MA). After washing the cells two times and following the 1 hour room temperature incubation of the antibody: antigen complexes, 50 μl of the antibody: antigen complex was added to each well containing cells. The mixtures of cells and antibody: antigen complexes were then incubated for 30 minutes at room temperature. Following this 30 minute incubation, each mixture was washed two times with DELFIA® wash buffer (Perkin-Elmer, Waltham, MA).
DELFIA® Europium labeled anti-human IgG detection reagent (Cat #1244-330, Perkin-Elmer, Waltham, MA) was diluted to a concentration of 300 ng/ml in DELFIA® Binding Buffer. Following dilution, 50 μl of the anti-human IgG detection reagent was added to each well containing cells, and a 30 minute incubation at room temperature followed this addition of IgG detection reagent. After completion of the 30 minute room temperature incubation, the cells were then washed two times with DELFIA® wash buffer. Next, 50 μl of DELFIA® Enhancement Solution (Cat #1244-105, Perkin-Elmer, Waltham, MA) was added to each well containing cells for a final 15 minute room temperature incubation with shaking. The plates were then read (TRF, excitation 330 nm, emission 620 nm) on a SPECTRAMAX® (Molecular Devices, Sunnyvale, CA) plate reader.

[10] = target: T2, PACAP27 (Pituitary Adenylate …); test: competition HTRF binding assay: unlabeled PACAP27 at 10x against biotinylated PACAP38 (35 nM)
Description: In parallel, 10 μl of an antibody dilution series (highest final concentration of 100 nM) were incubated with 10 μl of N-terminal or C-terminal biotinylated PACAP38 (35 nM final) alone, or in combination with either PACAP27 (350 nM final) or VIP (350 nM final), i.e., 10× PACAP27 or 10× VIP, respectively, in a HTRF plate. 20 μl of Eu³⁺ cryptate labeled anti-hu Fc donor and 20 μl of d2-labeled streptavidin acceptor were added to each well and incubated for 1 hour at room temperature. Fluorescence was measured at 620 and 665 nm with a delay of 300 usec.

Row | Binder | Kd [1] [nM] | koff [1] [s⁻¹] | kon [1] [M⁻¹ s⁻¹] | Kd [2] [nM] | koff [2] [s⁻¹] | kon [2] [M⁻¹ s⁻¹] | Inhibition of 0.1 nM PACAP38-induced PAC1-R mediated cAMP increase IC50 (pM) [3] [pM] | Inhibition of 1 nM PACAP27-induced PAC1-R mediated cAMP increase IC50 (pM) [4] [pM] | Inhibition of 5 nM PACAP38-induced human VPAC1-R mediated cAMP increase IC50 (pM) [5] [pM] | Kd [6] [nM] | koff [6] [s⁻¹] | kon [6] [M⁻¹ s⁻¹] | EC50 (read off the curve) [7] [nM] | Inhibition of 1 nM PACAP38-induced human VPAC2-R mediated cAMP increase IC50 (pM) [8] [pM] | binding result [9] | binding result [10]
1 | Ab21.H2 (antibody, human IgG1, kappa, N297A, Full-length humanized variant of Ab21) heavy: not shown light: AVLTQSPSTLSASVGDRVTITCKSSESVYGDYLAWFQQKPGKAPKQLIYDASTLASGVPSRFSGSGSGTEFTLTISSLQPDDFATYYCAGGYVSAGVAFGGGTKVEIKRTVAAPSVFIFPPSDEQLKSGTASVVCLLNNFYPREAKVQWKVDNALQSGNSQESVTEQDSKDSTYSLSSTLTLSKADYEKHKVYACEVTHQGLSSPVTKSFNRGEC | ≤ 0.0171 | ≤ 1e-05 | 586000 | ≤ 0.0233 | ≤ 1e-05 | 430000 | 28.5 | 274 | 2480 | 225 | 0.011 | 48800 | ~7 | 1060 | – | –
2 | Ab22 (antibody, human IgG1, kappa, N297A, V domains shown, Full-length anti-PACAP antibody; rabbit/human chimeric) VH: QEQLVESGGGLVQPEGSLTLTCTASGFDFSSNAMCWVRQAPGKGLEWIGSIYNADGKNYYAIWAKGRFTISRTSSTTVTLQMTSLTAADTATYFCARDFDLWGQGTLVTVSS VL: AAVLTQTPSPVSAAVGGTVTINCQSSQSVYDNDWLAWFQQKPGQPPKLLIYLTSTLASGVPSRFSGSGSGTQFTLTISGVQCDDAATYYCLGGYDEDGDTHVFGGGTEVVVKR | – | – | – | – | – | – | – | – | – | – | – | – | – | – | no binding (tested: about 70 nM) | no binding

Source: patent US20250009876A1 (H LUNDBECK A S, published 2025)
